This is an account of results in publication PMC5700522.

The series deals with T1, PoxCxrA17-150 (Penicillium oxalicum HP7-1) (UniProt A0A2H4WV05).
T1 sequence: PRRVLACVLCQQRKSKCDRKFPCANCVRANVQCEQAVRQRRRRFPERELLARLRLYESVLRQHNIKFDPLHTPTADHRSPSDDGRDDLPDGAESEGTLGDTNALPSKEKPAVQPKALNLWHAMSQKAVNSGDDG
In words: EMSA. Particulars: 20 mM Tris-HCl pH 8.0, 50 mM KCl, 5% glycerol, 1 mM DTT, 0.1 mg/mL BSA; 40 ng FAM probe, 0-4.8 ug protein; 4% PAGE in TAE; temperature not stated.

On to “CGGCTTCCAAAGACCCCATATCGACGATCGGCGATTTGGGGAGGGACTAAAGTAGGAGGGAGAGGGAGGGAGCAGAGAGGGAGGGAGCAGAGAGAGAGGGAGAGAGGGAGAGCAAGGGTGAATAACAAGAAAGCGACGATGACAAGGTTGGTAAGATAAC (double strand) [PoxNsdD promoter (CxrA probe)]”, for which the binding entry is given as “binds”.
As for “GTGAAAGAGGTGCTTGTCGTGATCGCTTGCCATATGTTTCACTGTATGACTTGGGCACCGGAGCGGCACCGTGAATCAGGCTGGCCAAATCCATTGTCGGACTAGATGCTTCGTCCGTTGGGATCGTTGAATTGTGCGGAATCAGTGTCGTCGAGTGATACAATTGGGACGTGAGATTTAGTCACGACCGATAAGGTG (double strand) [PoxCxrB promoter (CxrA probe)]”, the binding entry is reported as “binds”.
With “TTAGGAGTGCTATAAGATGGCGACAGAAGTCGGCCGAGGAGGAAATTCTCGTTTCCATCCACCGAGTCTGCATACATTGGATTTCGAGTTGTCAAAATGAGATACGATTTGATTCTTGCCGCCGGCGCCACTCTGGCACTGGCCGTGCCCCAGGGCATCTCCAAGCGGGCCGGAGGCTTTGTCTGTAAGTTG (double strand) [POX01166/Cel5B promoter (CxrA probe)]”, the binding entry is given as “binds”.
